Measured values: patent US20210238253A1 (GUANGDONG ZHAOTAI INVIVO BIOMEDICINE, published 2021)
Where a chain is given by its changes, count along the chain named. One block for each binder: values may come before it.

Tests used:
[1] = target: T1, CD19 expressed by Nalm6 cells (UniProt P15391 20-556, limits assumed); assay: flow cytometry on Nalm6 cells
T1 construct: whole, on cells; Endogenous CD19 on tumor cell lines; also called Nalm6/GL; CD19 antigen on RAJI-GL and NALM6-GL tumor cells
T1 sequence (looked up): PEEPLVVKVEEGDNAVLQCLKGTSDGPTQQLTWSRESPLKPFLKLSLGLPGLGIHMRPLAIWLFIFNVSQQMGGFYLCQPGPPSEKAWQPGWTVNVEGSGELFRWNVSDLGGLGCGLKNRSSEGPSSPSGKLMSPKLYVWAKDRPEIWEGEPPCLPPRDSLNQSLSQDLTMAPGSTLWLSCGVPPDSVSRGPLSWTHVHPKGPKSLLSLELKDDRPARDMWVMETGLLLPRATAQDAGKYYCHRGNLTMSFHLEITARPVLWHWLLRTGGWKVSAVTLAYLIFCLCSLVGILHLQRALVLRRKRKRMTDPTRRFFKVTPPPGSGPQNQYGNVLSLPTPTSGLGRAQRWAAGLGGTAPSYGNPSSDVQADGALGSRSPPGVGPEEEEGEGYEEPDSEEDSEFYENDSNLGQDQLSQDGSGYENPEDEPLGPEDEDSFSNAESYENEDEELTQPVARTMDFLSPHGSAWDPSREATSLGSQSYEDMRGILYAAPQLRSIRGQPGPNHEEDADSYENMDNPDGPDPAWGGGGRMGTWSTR
Description: The CD19-expressing tumor cells Nalm6 in logarithmic growth phase were collected and resuspended in PBS at a cell density of 10⁵/well, 100 μl/well. The diluted CD19 antibodies were added into the well and incubated at 4° C. for 1 hour. The cells were washed three times with flow cytometry wash buffer. Anti-rat IgG-Alexa Fluor 647 (Abcam, Cat #ab150163) was added and incubated at 4° C. for 1 hour. The cells were washed three times with flow cytometry wash buffer. The samples were analyzed by flow cytometry. The results are shown in FIG. 3 and Table 4, as follows: […]

hCD40 = target: T2, hCD40 (human, UniProt P25942 21-193); assay: ELISA, coated antigen 0.5 µg/ml
T2 construct: Coated antigen of the specificity ELISA
T2 sequence (P25942 21-193 limits assumed): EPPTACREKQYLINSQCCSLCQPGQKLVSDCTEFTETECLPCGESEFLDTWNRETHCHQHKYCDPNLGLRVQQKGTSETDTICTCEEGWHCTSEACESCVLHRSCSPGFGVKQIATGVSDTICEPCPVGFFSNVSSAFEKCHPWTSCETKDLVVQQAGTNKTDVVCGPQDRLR
Description: (§1) According to the method described in Example 4, 0.5 μg/ml of hCD19-His, hVISTA-his, hPD-L1, hCD40, h41BB and hLAG3 were spread and incubated respectively, and 2μg/ml of purified antibodies were added to bind the incubated antigen. The binding signal of each antibody could be detected with HRP-labeled goat anti-rat Fc antibody.

hPD-L1 = target: T3, hPD-L1 (human, UniProt Q9NZQ7 19-238, limits assumed); assay: ELISA, coated antigen 0.5 µg/ml
T3 construct: Coated antigen of the specificity ELISA
T3 sequence (Q9NZQ7 19-238 limits assumed): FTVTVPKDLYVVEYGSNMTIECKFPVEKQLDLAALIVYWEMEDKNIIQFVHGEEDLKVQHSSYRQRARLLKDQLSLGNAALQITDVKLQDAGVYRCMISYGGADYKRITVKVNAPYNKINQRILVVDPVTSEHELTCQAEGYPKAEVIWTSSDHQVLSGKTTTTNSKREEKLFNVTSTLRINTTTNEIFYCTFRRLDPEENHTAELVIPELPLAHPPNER
Description: as §1

h41BB = target: T4, h41BB (human, UniProt Q07011 24-186); assay: ELISA, coated antigen 0.5 µg/ml
T4 construct: Coated antigen of the specificity ELISA
Description: as §1

hVISTA-his = target: T5, hVISTA-his (human, UniProt Q9H7M9 33-194); assay: ELISA, coated antigen 0.5 µg/ml
T5 construct: Coated antigen of the specificity ELISA
T5 sequence (looked up): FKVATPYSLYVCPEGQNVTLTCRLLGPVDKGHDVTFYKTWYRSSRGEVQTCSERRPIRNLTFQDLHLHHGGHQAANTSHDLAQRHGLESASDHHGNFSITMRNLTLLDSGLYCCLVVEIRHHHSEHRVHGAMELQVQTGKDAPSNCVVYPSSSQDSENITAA
Description: as §1

hLAG3 = target: T6, hLAG3 (human, UniProt P18627 23-450, limits assumed); assay: ELISA, coated antigen 0.5 µg/ml
T6 construct: Coated antigen of the specificity ELISA
T6 sequence (looked up): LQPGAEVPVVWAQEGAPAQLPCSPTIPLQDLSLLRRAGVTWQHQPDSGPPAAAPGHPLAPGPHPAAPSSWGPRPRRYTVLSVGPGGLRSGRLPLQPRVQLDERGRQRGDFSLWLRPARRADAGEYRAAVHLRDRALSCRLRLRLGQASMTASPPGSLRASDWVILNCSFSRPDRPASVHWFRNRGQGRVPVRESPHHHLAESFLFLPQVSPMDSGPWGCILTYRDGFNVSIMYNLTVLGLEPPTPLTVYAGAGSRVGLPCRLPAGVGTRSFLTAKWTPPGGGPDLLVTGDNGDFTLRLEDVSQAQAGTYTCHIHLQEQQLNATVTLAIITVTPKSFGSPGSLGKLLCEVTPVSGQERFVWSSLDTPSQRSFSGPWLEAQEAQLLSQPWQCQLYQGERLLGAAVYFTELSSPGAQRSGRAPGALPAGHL
Description: as §1

[2] = target: T7, CD19 expressed by Nalm6 cells (UniProt P15391 20-556); assay: flow cytometry
T7 chain: T1 sequence (looked up)

[3] = target: T8, hCD19-his (human CD19 recombinant protein, Pro20-Lys291, His tag at C-terminus) (human, UniProt P15391 20-291); assay: ELISA, coated hCD19-His
T8 construct: range 20-291; also called human CD19-His
T8 sequence (looked up): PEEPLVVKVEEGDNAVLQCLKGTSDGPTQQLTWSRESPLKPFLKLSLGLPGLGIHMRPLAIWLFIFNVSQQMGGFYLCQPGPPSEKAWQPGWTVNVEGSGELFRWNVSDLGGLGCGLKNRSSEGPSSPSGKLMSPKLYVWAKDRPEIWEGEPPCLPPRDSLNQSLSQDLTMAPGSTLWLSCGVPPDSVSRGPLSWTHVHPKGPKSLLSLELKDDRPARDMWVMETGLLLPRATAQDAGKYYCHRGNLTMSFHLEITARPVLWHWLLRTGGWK
Description: The antibodies were screened by ELISA according to Example 2. Briefly, […] of hCD19-His (ACRO) were spread and incubated. The purified antibodies were serially diluted to bind the incubated antigen. The binding signal of each antibody could be detected with HRP-labeled goat anti-rat Fc antibody.
Graphpad Prism software was used to calculate the fitting data.

[4] = target: T8, hCD19-his (human CD19 recombinant …); assay: ELISA, coated hCD19-His, fully humanized antibody titrated
Description: According to the method described in Example 4, 0.5 μg/ml of hCD19-His was spread and incubated. The fully humanized antibodies were serially diluted and added to bind the incubated antigen. The binding signal of each antibody could be detected with HRP-labeled goat […] Fc antibody. The results are shown in FIG. 5 and Table 5, as follows: […]

Maximum mean fluorescence intensity (30 µg/ml) [1]: 5160 | binding result (hCD40): no binding (tested: 2 µg/ml) | binding result (hPD-L1): no binding (tested: 2 µg/ml) | binding result (h41BB): no binding (tested: 2 µg/ml) | binding result (hVISTA-his): no binding (tested: 2 µg/ml) | binding result (hLAG3): no binding (tested: 2 µg/ml) | EC50 [2]: 1.87 mg/L | EC50 [3]: 0.0592 mg/L
B1: 52F9 (hybridoma antibody) (antibody, V domains shown)
VH: QVQLVESGGGVVQAGRSLRLSCAASGFTFSNYGIHWVRQAPGKGLEWVGVIWHDGSIKNYADFVKGRFTISRDNSEDTLYLQMNSLRAEDTAVYYCAREQGNYYGWGSYKAFDIWGQGTMVTVSS
VL: DIQLTQSPSFLSVFVGDRVTITCRASQGISNYLAWYQQKPGKAPELLLYATSTLQSGVPSRLSGSGSGTEFTLTLSSLQPEDFATYYCQQVYSFPYTFGQGTKLEIK
notes: hybridoma mAb from H2L2 mouse (human variable, rat constant regions)

EC50 [4]: 0.00792 mg/L
B2: 52F9 fully humanized antibody (recombinant, human IgG1 / kappa) (antibody, V domains shown)
VH: B1 VH
VL: B1 VL

Maximum mean fluorescence intensity (30 µg/ml) [1]: 24700 | binding result (hCD40): no binding (tested: 2 µg/ml) | binding result (hPD-L1): no binding (tested: 2 µg/ml) | binding result (h41BB): no binding (tested: 2 µg/ml) | binding result (hVISTA-his): no binding (tested: 2 µg/ml) | binding result (hLAG3): no binding (tested: 2 µg/ml) | EC50 [2]: 22.9 mg/L | EC50 [3]: 0.0249 mg/L
B3: 31A2 (hybridoma antibody) (antibody, V domains shown)
VH: QVQLVESGGGVVQPGRSLRLSCAASGFTFSRHGMHWVRQAPGKGLEWVAVIWYDGSNKYYVDSVKGRFTISRDNSKNTLDLQMNSLRAEDTAVYYCARRSITWDGAFDIWGQGTMVTVSS
VL: DIQMTQSPSTLSASVGDRVTISCRASQSISSWLAWYQQKPGKAPKLLIYKASSLESGVPSRFSGSGSGTEFTLTISSLQPDDFATYYCQQYNSAYTFGQGTKLEIK
notes: as for B1

Maximum mean fluorescence intensity (30 µg/ml) [1]: 25500 | binding result (hCD40): no binding (tested: 2 µg/ml) | binding result (hPD-L1): no binding (tested: 2 µg/ml) | binding result (h41BB): no binding (tested: 2 µg/ml) | binding result (hVISTA-his): no binding (tested: 2 µg/ml) | binding result (hLAG3): no binding (tested: 2 µg/ml) | EC50 [2]: 36.9 mg/L | EC50 [3]: 0.176 mg/L
B4: 17B6 (hybridoma antibody) (antibody, V domains shown)
VH: QVQLVESGGGVVQPGRSLRLSCEASGFTFSRHGMHWVRQAPGKGLEWVAVIFYDGSQNYYADSVRGRFTISRDNSKNTLSLQMDSLRAEDTAVYYCARRSITWNGGFDIWGQGTMVTVSP
VL: B3 VL with S22T, T74A, S93R, A94F
notes: as for B1

EC50 [4]: 0.00452 mg/L
B5: 17B6 fully humanized antibody (recombinant, human IgG1 / kappa) (antibody, V domains shown)
VH: B4 VH
VL: B3 VL with S22T, T74A, S93R, A94F

EC50 [4]: 0.00446 mg/L
B6: 31A2 fully humanized antibody (recombinant, human IgG1 / kappa) (antibody, V domains shown)
VH: B3 VH
VL: B3 VL

Maximum mean fluorescence intensity (30 µg/ml) [1]: 23300 | binding result (hCD40): no binding (tested: 2 µg/ml) | binding result (hPD-L1): no binding (tested: 2 µg/ml) | binding result (h41BB): no binding (tested: 2 µg/ml) | binding result (hVISTA-his): no binding (tested: 2 µg/ml) | binding result (hLAG3): no binding (tested: 2 µg/ml) | EC50 [2]: 11.8 mg/L | EC50 [3]: 0.0301 mg/L
B7: 11H8 (hybridoma antibody) (antibody, V domains shown)
VH: B3 VH with K58Q, A88V, D104Y, A106G
VL: B3 VL with S22T, S60P
notes: as for B1

EC50 [4]: 0.004 mg/L
B8: 27F11 fully humanized antibody (recombinant, human IgG1 / kappa) (antibody, V domains shown)
VH: B3 VH with W52Y, D104N
VL: B3 VL

EC50 [4]: 0.00263 mg/L
B9: 11H8 fully humanized antibody (recombinant, human IgG1 / kappa) (antibody, V domains shown)
VH: B3 VH with K58Q, A88V, D104Y, A106G
VL: B3 VL with S22T, S60P

Maximum mean fluorescence intensity (30 µg/ml) [1]: 21700 | binding result (hCD40): no binding (tested: 2 µg/ml) | binding result (hPD-L1): no binding (tested: 2 µg/ml) | binding result (h41BB): no binding (tested: 2 µg/ml) | binding result (hVISTA-his): no binding (tested: 2 µg/ml) | binding result (hLAG3): no binding (tested: 2 µg/ml) | EC50 [2]: 24.6 mg/L | EC50 [3]: 0.0287 mg/L
B10: 15F2 (hybridoma antibody) (antibody, V domains shown)
VH: B3 VH
VL: B3 VL with I21V, S22T, S30R
notes: as for B1

EC50 [4]: 0.00378 mg/L
B11: 15F2 fully humanized antibody (recombinant, human IgG1 / kappa) (antibody, V domains shown)
VH: B3 VH
VL: B3 VL with I21V, S22T, S30R

Maximum mean fluorescence intensity (30 µg/ml) [1]: 10400 | EC50 [3]: 0.0737 mg/L
B12: 19D6 (antibody, V domains shown)
VH: B3 VH
VL: B3 VL with I21V, S22T, S30R
notes: as for B1

Maximum mean fluorescence intensity (30 µg/ml) [1]: 30000 | binding result (hCD40): no binding (tested: 2 µg/ml) | binding result (hPD-L1): no binding (tested: 2 µg/ml) | binding result (h41BB): no binding (tested: 2 µg/ml) | binding result (hVISTA-his): no binding (tested: 2 µg/ml) | binding result (hLAG3): no binding (tested: 2 µg/ml) | EC50 [2]: 57.3 mg/L | EC50 [3]: 0.0672 mg/L
B13: 27F11 (hybridoma antibody) (antibody, V domains shown)
VH: B3 VH with W52Y, D104N
VL: B3 VL
notes: as for B1
